The values below come from patent publication US20190135908A1 (Novartis, published 2019).

The target of assay [1] is T1, GDF15 mutant I285R (knuckle region), albumin fusion (human, UniProt Q99988 195-308).
T1 construct: not shown: albumin fusion partner
T1 chain: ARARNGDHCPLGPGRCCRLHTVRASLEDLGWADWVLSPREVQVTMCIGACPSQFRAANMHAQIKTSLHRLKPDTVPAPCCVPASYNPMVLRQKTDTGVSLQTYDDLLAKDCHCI
The assay is described as follows: direct ELISA on coated albumin-fusion GDF15 mutant. As to the method:
(§1) Antibody epitope was determined by a direct ELISA method with GDF15 mutants. Albumin fusion GDF15 mutants were coated in wells of a 96-well EIA plate. After blocking, serially diluted anti-hGDF15 human antibodies were added to the GDF15-coated wells, followed by incubation at an ambient temperature for a few hours. Antibody binding was detected using an anti-human IgG antibody conjugated with horseradish peroxidase (HRP) and HRP substrate.

The target in assay [2] is T2, GDF15 mutant S231R (knuckle region), albumin fusion (human, UniProt Q99988 195-308).
T2 construct: not shown: albumin fusion partner
T2 chain: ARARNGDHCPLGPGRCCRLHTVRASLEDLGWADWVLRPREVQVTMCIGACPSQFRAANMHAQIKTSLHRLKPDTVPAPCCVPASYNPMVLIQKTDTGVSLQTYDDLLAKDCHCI
As to the kind of experiment: direct ELISA on coated albumin-fusion GDF15 mutant. As to the method:
as §1
For orientation: ELISA stands for enzyme-linked immunosorbent assay.

The target in assay [3] is T3, Human GDF15 native: naturally produced human GDF15 purchased from Peprotech (human, UniProt Q99988 195-308).
T3 construct: Bought protein
T3 sequence: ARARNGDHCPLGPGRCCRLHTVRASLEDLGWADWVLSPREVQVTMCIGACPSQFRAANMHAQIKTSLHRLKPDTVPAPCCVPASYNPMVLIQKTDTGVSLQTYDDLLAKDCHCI
As to the kind of experiment: Biacore SPR (rounded from Table 2, human GDF15 native). As to the method:
(§2) Anti-human Fc capture antibody was immobilized at 0.5 μg/ml on CMS chip in all four flow cells to achieve 8000 to 12,000 resonance units (RU) on the surface. Anti-hGDF15 antibodies were captured at flow rate […], at 0.25 to 0.5 μg/ml on the chip to get about 30 RU in flow cells 2, 3 and 4. GDF15 ligand was flowed at […] over captured antibodies and reference flow cell 1 for 600 and 1200 seconds contact time. Eight doses serially diluted 1 to 2, ranging from 20 to 0.156 nM, were tested. All cycles were repeated twice, regenerated between cycles with 3M MgCl₂ at flow […], 20 seconds contact time. Data were normalized by subtracting reference flow cell results. Data were fit with 1:1 Kinetics model with RI (bulk refractive index) set constant at 0.
Background: Surface plasmon resonance follows binding to a sensor surface in real time, without labels.

Assay [4] addresses T4, Rat GDF15 HIS: HIS-tagged rat GDF15 (rat, UniProt Q9Z0J6 189-303, limits assumed).
T4 construct: also called Rat His-GDF15; not shown: His tag
T4 sequence (looked up): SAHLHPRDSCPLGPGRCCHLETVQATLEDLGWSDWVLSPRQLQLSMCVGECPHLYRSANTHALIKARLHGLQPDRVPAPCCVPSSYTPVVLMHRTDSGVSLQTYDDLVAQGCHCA
The assay is described as follows: Biacore SPR, IgG captured via anti-human Fc, GDF15 in flow. As to the method:
(§3) Biacore assay is based on surface plasmon resonance (SPR) and were used to determine the binding affinity of antibodies to GDF15.
as §2

Assay [5] deals with T5, Human His-GDF15: HIS-tagged human GDF15 (human, UniProt Q99988 195-308).
T5 construct: not shown: His tag
T5 sequence: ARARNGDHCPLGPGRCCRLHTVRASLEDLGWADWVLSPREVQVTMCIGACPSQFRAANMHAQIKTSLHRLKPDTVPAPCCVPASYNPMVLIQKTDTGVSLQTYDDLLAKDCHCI
The assay is described as above. As to the method: as §3, §2

Assay [6] concerns the target T3, Human GDF15 native: naturally produced …. Described as above. On the procedure:
as §3, §2

The target of assay [7] is T6, Mouse His-GDF15: HIS-tagged mouse GDF15 (mouse, UniProt Q9Z0J7 189-303).
T6 construct: not shown: His tag
T6 sequence (looked up): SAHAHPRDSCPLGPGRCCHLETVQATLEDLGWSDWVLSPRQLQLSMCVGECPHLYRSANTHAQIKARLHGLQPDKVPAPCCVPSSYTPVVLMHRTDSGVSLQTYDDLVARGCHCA
Described as above. On the procedure:
as §3, §2

Assay [8] addresses T7, Cyno His-GDF15: HIS-tagged cyno GDF15 (cynomolgus, UniProt G7PWZ3 197-308, limits assumed).
T7 construct: not shown: His tag
T7 sequence (looked up): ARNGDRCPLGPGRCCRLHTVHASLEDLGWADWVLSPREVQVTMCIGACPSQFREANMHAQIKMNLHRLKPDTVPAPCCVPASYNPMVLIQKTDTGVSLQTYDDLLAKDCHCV
Described as above. On the procedure: as §3, §2

For assay [9], the target named is T8, GDF15 mutant D289R (finger tip region), albumin fusion (human, UniProt Q99988 195-308).
T8 construct: not shown: albumin fusion partner
T8 chain: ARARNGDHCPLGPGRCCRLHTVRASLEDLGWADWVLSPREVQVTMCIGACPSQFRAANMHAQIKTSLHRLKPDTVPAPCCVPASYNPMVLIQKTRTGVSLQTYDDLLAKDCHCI
The assay is described as follows: direct ELISA on coated albumin-fusion GDF15 variant. On the procedure:
as §1

Assay [10] addresses T9, GDF15 mutant S278R (back-of-hand), albumin fusion (human, UniProt Q99988 195-308).
T9 construct: not shown: albumin fusion partner
T9 chain: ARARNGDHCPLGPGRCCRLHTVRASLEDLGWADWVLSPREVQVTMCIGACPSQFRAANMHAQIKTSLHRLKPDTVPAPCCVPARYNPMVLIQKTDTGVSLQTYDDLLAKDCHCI
The description is as above. As to the method:
as §1

Assay [11] has as its target T10, GDF15 mutant W228R (wrist region), albumin fusion (human, UniProt Q99988 195-308).
T10 construct: not shown: albumin fusion partner
T10 chain: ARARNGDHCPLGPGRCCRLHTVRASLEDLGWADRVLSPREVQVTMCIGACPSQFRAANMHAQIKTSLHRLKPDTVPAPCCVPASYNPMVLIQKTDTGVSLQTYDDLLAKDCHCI
Described as above. On the procedure: as §1

Assay [12] has as its target T11, GDF15 mutant M253R (wrist region), albumin fusion (human, UniProt Q99988 195-308).
T11 construct: not shown: albumin fusion partner
T11 chain: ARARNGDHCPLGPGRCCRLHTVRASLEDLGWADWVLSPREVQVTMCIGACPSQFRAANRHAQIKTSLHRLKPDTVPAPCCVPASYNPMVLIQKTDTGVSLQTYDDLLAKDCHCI
The description is as above. On the procedure: as §1

The target in assay [13] is T12, GDF15 mutant Q247R (wrist region), albumin fusion (human, UniProt Q99988 195-308).
T12 construct: not shown: albumin fusion partner
T12 chain: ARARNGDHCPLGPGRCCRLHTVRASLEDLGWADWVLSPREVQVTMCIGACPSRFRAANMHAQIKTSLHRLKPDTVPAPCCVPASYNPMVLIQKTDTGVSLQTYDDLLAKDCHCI
Described as above. As to the method:
as §1

For assay [14], the target named is T13, GDF15 mutant L294R (knuckle region), albumin fusion (human, UniProt Q99988 195-308).
T13 construct: not shown: albumin fusion partner
T13 chain: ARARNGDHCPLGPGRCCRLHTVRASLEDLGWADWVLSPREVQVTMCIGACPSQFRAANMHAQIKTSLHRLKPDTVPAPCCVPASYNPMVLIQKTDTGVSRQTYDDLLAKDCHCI
As to the kind of experiment: direct ELISA: albumin fusion GDF15 mutant coated on the plate, serially diluted antibody, anti-human IgG-HRP detection. As to the method: as §1

Assay [15] deals with T13, GDF15 mutant L294R (knuckle region), …. As to the kind of experiment: direct ELISA on coated albumin-fusion GDF15 mutant. As to the method: as §1
The target of assay [16] is T2, GDF15 mutant S231R (knuckle region), …. As to the kind of experiment: direct ELISA: albumin fusion GDF15 mutant coated on the plate, serially diluted antibody, anti-human IgG-HRP detection. On the procedure:
as §1

B1: ABGDF15-B (antibody, human IgG1, lambda, V domains shown)
VH: QVQLVQSGAEVKKPGSSVKVSCKASGGTFRSYAVSWVRQAPGQGLEWMGGIIPIFGTANYAQKFQGRVTITADESTSTAYMELSSLRSEDTAVYYCARGPIIMGYQFGLFDHWGQGTLVTVSS
VL: SYELTQPLSVSVALGQTARITCSGDNIGSHIVSWYQQKPGQAPVLVIYDKSNRPSGIPERFSGSNSGNTATLTISRAQAGDEADYYCQTWDSIGSVVFGGGTKLTVLG
notes: captured through anti-human Fc in the Biacore assay
Usually Kd stands for the constant that tells how readily two partners part at equilibrium. Read a high Kd as lower affinity. What is called koff is the rate constant with which the complex falls apart. A higher koff goes with fast dissociation. For orientation: kon means the second-order rate constant of association. The low end stands for slower complex formation, the high end for faster complex formation. In the case of B1, the binding result in assay [1] is on record as “no binding”; in assay [2], “no binding”; in assay [9] it was “binds”; in assay [10] it was “binds”; in [11] it was “binds”; in [12], “binds”. The binding result in [13] and in assay [14] was “binds” each time. For the same molecule, the Kd in assay [3] was 0.115 nM; in assay [4], 0.097 nM; in assay [5], 0.0614 nM; in assay [6] it was 0.115 nM; in assay [7] it was 0.237 nM; in assay [8] it was 0.0836 nM. For the same molecule, the off-rate (koff) in assay [4] worked out at 0.00052 s⁻¹; in [5] it was 0.00054 s⁻¹; in [6], 0.000389 s⁻¹; in [7], 0.000626 s⁻¹; in [8], 0.000461 s⁻¹. The kon in [4] was found to be 5.36e+06 M⁻¹ s⁻¹; in assay [5], 8.8e+06 M⁻¹ s⁻¹; in [6], 3.38e+06 M⁻¹ s⁻¹; in assay [7], 2.64e+06 M⁻¹ s⁻¹; in [8] it was 5.52e+06 M⁻¹ s⁻¹.

B2: ABGDF15-C (antibody, human IgG1, lambda, V domains shown)
VH: QVQLVQSGAEVKKPGSSVKVSCKASGGTFRSYAVSWVRQAPGQGLEWMGGIIPIFGTANYAQKFQGRVTITADESTSTAYMELSSLRSEDTAVYYCARGPIIMGYQFGLFDHWGQGTLVTVSS
VL: SYELTQPPSVSVSPGQTASITCSGDNIGSHIVSWYQQKPGQSPVLVIYDKSNRPSGIPERFSGSNSGNTATLTISGTQAMDEADYYCQTWDSIGSVVFGGGTKLTVLG
notes: as for B1
Take B2: the binding result in assay [1] is recorded as “no binding”; in [2], “no binding”; in assay [9], “binds”; in assay [10], “binds”; in assay [11], “binds”; in assay [12], “binds”. Further, the binding result in assay [13] and in assay [14] was “binds” each time. For the same molecule, the Kd in [3] was 0.066 nM; in assay [4], 0.0618 nM; in assay [5], 0.0422 nM; in assay [6], 0.0656 nM; in [7], 0.116 nM; in assay [8], 0.065 nM. Further, the koff in assay [4] was 0.000483 s⁻¹; in [5], 0.000468 s⁻¹; in assay [6], 0.000388 s⁻¹; in [7] it was 0.000505 s⁻¹; in assay [8] it was 0.000322 s⁻¹. The kon in [4] was 7.81e+06 M⁻¹ s⁻¹; in assay [5], 1.11e+07 M⁻¹ s⁻¹; in assay [6], 5.92e+06 M⁻¹ s⁻¹; in assay [7], 4.37e+06 M⁻¹ s⁻¹; in assay [8], 4.96e+06 M⁻¹ s⁻¹.

B3: ABGDF15-F (antibody, human IgG1, lambda, V domains shown)
VH: EVQLVQSGAEVKKPGESLKISCKGSGYSFTSYWIGWVRQMPGKGLEWMGVIDPSGSYTIYSPSFQGQVTISADKSISTAYLQWSSLKASDTAMYYCARYGRYGTYFDYWGQGTLVTVSS
VL: QSVLTQPPSVSGAPGQRVTISCSGSSSNIGVLYVNWYQQLPGTAPKLLIYSNDNRPSGVPDRFSGSKSGTSASLAITGLQAEDEADYYCQSWDSSSNYVFGGGTKLTVLG
notes: as for B1
B3: the binding result is given as “no binding” in [1]; “no binding” in [15]; “binds” in assay [9]; “binds” in assay [10]; “binds” in assay [11]; “binds” in assay [12]. Besides, the binding result in assay [13] and in assay [16] was “binds” in each case. In addition, the dissociation constant Kd stood at 0.037 nM in assay [3]; 0.0485 nM in assay [4]; 0.0115 nM in [5]; 0.0368 nM in assay [6]; 0.0964 nM in assay [7]; 0.035 nM in assay [8]. The koff in assay [4] worked out at 0.000538 s⁻¹; in assay [5], 0.00048 s⁻¹; in assay [6] it was 0.000696 s⁻¹; in assay [7], 0.000584 s⁻¹; in [8], 0.00044 s⁻¹. For the same molecule, the kon was determined as 1.11e+07 M⁻¹ s⁻¹ in [4]; 4.19e+07 M⁻¹ s⁻¹ in assay [5]; 1.89e+07 M⁻¹ s⁻¹ in assay [6]; 6.05e+06 M⁻¹ s⁻¹ in assay [7]; 1.26e+07 M⁻¹ s⁻¹ in [8].
